Experiment [1] concerns the target FPR-GFP fusion protein (human; Aequorea victoria) (UniProt P21462). Briefly: flow cytometry, LRG assembly of 30 nM FPR-GFP on αβγ DCNi beads, ligand varied (FIG. 13B); exponent printed as 10^6, read as 10^-6. (In general: Flow cytometry measures light scatter and fluorescence of single cells or particles in a stream.)
In experiment [2] the target is β2-adrenergic receptor-green fluorescent protein fusion protein (β2AR-GFP) (human; Aequorea victoria) (UniProt P07550). As to the kind of experiment: flow cytometry, soluble Gαsβ1γ2 competing with bead-borne Gαsβ1γ2 for isoproterenol-bound β2AR-GFP (FIG. 4E).
The target of experiment [3] is hexahistidine-tagged G protein heterotrimer Gαsβ1γ2 (human) (UniProt P63092). As to the kind of experiment: flow cytometry, Gαsβ1γ2 on Ni beads, 40 nM β2AR-GFP with 1 mM isoproterenol; background with 0.1 mM GTPγS about 10,000 β2AR-GFP/bead.
Chain of hexahistidine-tagged G protein heterotrimer Gαsβ1γ2 (human) (P63092 other isoform, or with tags, fused parts or gaps, chain 1 of 3): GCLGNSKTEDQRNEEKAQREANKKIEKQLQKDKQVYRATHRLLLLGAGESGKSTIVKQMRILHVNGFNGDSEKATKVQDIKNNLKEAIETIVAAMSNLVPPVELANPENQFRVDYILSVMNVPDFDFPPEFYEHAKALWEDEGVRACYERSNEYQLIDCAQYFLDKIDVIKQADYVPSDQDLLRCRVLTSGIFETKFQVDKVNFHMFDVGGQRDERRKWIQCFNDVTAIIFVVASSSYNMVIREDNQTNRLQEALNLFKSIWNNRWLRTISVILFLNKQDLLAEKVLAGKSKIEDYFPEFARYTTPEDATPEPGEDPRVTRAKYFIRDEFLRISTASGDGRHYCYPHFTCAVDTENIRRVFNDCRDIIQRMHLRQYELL
Chain of hexahistidine-tagged G protein heterotrimer Gαsβ1γ2 (human) (P62873 2-340, chain 2 of 3, further chain): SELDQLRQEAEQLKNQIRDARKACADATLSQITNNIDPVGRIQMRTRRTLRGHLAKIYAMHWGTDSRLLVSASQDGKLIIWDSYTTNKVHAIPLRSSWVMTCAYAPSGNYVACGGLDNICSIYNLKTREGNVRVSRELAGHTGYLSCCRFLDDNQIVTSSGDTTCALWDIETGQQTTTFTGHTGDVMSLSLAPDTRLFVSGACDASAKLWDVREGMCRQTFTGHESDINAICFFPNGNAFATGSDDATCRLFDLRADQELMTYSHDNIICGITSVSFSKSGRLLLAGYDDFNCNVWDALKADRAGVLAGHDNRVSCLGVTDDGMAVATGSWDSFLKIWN
Chain of hexahistidine-tagged G protein heterotrimer Gαsβ1γ2 (human) (P59768 other isoform, or with tags, fused parts or gaps, chain 3 of 3, further chain): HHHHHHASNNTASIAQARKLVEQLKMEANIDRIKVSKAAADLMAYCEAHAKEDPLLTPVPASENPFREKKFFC
The target is the same in experiment [4]. Briefly: flow cytometry, ARG assembly of 20 nM β2AR-GFP on Gαsβ1γ2 Ni beads, receptor occupied by salbutamol (FIG. 5B).
Experiment [5] shares this target. As to the kind of experiment: flow cytometry, ARG assembly of 20 nM β2AR-GFP on Gαsβ1γ2 Ni beads, receptor occupied by dobutamine (FIG. 5B).

Consider 3 substances from patent US7232659.

In general, EC50 refers to the concentration giving half of the maximal effect. Read a high EC50 as a less potent agent. On to fML (peptide), for which, in experiment [1], the EC50 came out at 5.3 µM.

What is called Kd is the free concentration of one partner at which half of the binding sites on the other are occupied at equilibrium, for simple one-to-one binding. A high value points to weaker binding. In experiment [2], “hexahistidine-tagged G protein heterotrimer Gαsβ1γ2 (from UniProt P63092 2-380; P62873 2-340; P59768 2-68)” showed a Kd of 90 to 110 nM.

The substance “β2-adrenergic receptor-green fluorescent protein fusion protein (β2AR-GFP) (from UniProt P07550 1-413; P42212 1-238)” showed a total fluorescence, β2AR-GFP/bead (β2AR-GFP/bead) in experiment [3] of 80000. In addition, the ARG/bead level against the full agonist isoproterenol is 30 percent in experiment [4] and 10 percent in experiment [5].
